Experimental data from US20260070984A1 (Boehringer Ingelheim, published 2026).
Where two headings read alike, the source gives them in different places.

What was measured:
cynomologous PD-1 [1] = target: T1, cynomologous PD-1 (cynomolgus monkey, UniProt B0LAJ3 25-170); assay: SPR, ProteOn XPR36, 1:1 binding model
T1 construct: Used in SPR; also called cynomolgus PD-1; recombinant cynomologus PD-1
Experimental: C) Affinity and kinetic data for the anti-PD-1 antibodies binding to cynomologous PD-1 were measured on the ProteOn™ XPR36 surface plasmon resonance optical biosensor, and globally fit to a 1:1 binding model (Table 11).

[2] = target: T2, human PD-1 expressed on cells (human, UniProt Q15116 25-288); assay: cell-based or functional assay
T2 sequence (Q15116 25-288): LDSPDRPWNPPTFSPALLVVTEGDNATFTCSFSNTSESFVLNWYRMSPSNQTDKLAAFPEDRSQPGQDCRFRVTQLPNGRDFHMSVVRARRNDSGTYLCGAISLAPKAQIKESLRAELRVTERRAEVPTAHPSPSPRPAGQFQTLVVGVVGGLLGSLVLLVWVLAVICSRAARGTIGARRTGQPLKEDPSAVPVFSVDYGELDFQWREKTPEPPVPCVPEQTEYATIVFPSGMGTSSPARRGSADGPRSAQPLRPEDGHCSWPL

[3] = target: T2, human PD-1 expressed on cells; assay: flow cytometry, AlexaFluor 647 labeled antibody on Jurkat cells expressing human PD-1
Experimental: Selectivity of anti-PD-1 antibody to human PD-1 protein in a cell-based assay was evaluated by flow cytometry. […] As a control, parental and PD-1 expressing Jurkat cells were incubated with anti-TNP isotype control antibodies. Following incubation, the cells were washed to remove non-bound antibody, fixed in PFA, and then washed in staining buffer. Binding of the antibody to the Jurkat cells was evaluated by flow cytometry. Unstained cells were also evaluated by flow cytometry as a negative control.

[4] = target: T2, human PD-1 expressed on cells; assay: cell-based or functional assay; remark: listed apart in the source
recombinant human PD-1 = target: T3, recombinant human PD-1 (human, UniProt Q15116 25-167, limits assumed); assay: SPR, ProteOn XPR36, 1:1 binding model
T3 construct: Soluble recombinant protein used in SPR; also called PDCD1; purified recombinant human PD-1
T3 sequence (Q15116 25-167 limits assumed): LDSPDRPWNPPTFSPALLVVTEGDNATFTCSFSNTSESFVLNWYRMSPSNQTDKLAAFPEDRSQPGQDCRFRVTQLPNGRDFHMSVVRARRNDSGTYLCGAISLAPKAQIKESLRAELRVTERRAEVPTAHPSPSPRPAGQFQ
Experimental: Antibody PD1AB-6-4P (antibody in IgG4Pro backbone disclosed in WO2017/058859 to Celgene) was also tested.

[5] = target: T2, human PD-1 expressed on cells; assay: cell-based or functional assay; remark: listed apart in the source
[6] = target: T2, human PD-1 expressed on cells; assay: CHO-PD1-PDL1 DELFIA Eu TRF assay: enhancement of biotin labeled PD-L1 binding to CHO cells expressing PD-1, antibody titrated
Experimental: 10,000 cells were plated and incubated overnight at 37° C.±5% CO2 incubator (humidified incubator). […] Plates were washed twice with 50 μl of 1× TRF Wash Buffer. 20 μL of Eu-Streptavidin reagent was added to the assay plate, and incubated at room temperature for one hour. Enhancement Solution was added and incubated for 30 minutes at RT.

[7] = target: T2, human PD-1 expressed on cells; assay: cell-based or functional assay; remark: listed apart in the source
[8] = target: T2, human PD-1 expressed on cells; assay: cell-based or functional assay; remark: listed apart in the source
cynomologous PD-1 [9] = target: T1, cynomologous PD-1; assay: SPR, ProteOn XPR36

T1 sequence (B0LAJ3 entry or part of it limits assumed): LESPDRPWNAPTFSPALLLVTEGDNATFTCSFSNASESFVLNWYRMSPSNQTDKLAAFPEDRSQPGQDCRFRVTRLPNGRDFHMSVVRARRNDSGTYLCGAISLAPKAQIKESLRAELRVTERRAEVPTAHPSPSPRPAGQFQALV

B1: Antibody C (antibody, human IgG4 S228P, kappa, V domains shown)
VH: EVQLVESGGGLVQPGGSLRLSCAASGFTFSDYYMSWVRQAPGKGLEWVAYISSGGGSSYYPDAVKGRFTISRDNAKQSLYLQMQSLRAEDTAVYYCARLPHYFAMDYWGQGTLVTVSS
VL: DIQMTQSPSSLSASVGDRVTITCQASQSISSDYLHWYQQKPGKAPKLLIYRTSNLETGVPSRFSGSGSGTDFTFTISSLQPEDIATYYCQQGTSLPRAFGQGTKLEIKR
notes: Humanized 723C2, human IgG4Pro/kappa; also called Ab C; 723C2-IgG4Pro-461-47 with IgK-462-07
A Kd (cynomologous PD-1 [1]) of 41 nM, a koff (cynomologous PD-1 [1]) of 0.00633 s⁻¹ and a kon (cynomologous PD-1 [1]) of 154000 M⁻¹ s⁻¹ were found for B1 in this work. For the same binder, the “IC50 Values (nM), Geomean, inhibition of IFNγ” value [2] was 0.03 nM, the “EC50 (read off the curve)” value [3] was about 10 nM and the “IC50 Values (nM), Geomean, inhibition of IFNγ” value [4] was 0.03 nM. The Kd (recombinant human PD-1) was 2.65 nM, the koff (recombinant human PD-1) was 0.000463 s⁻¹ and the kon (recombinant human PD-1) was 175000 M⁻¹ s⁻¹. For the same binder, the “Emax Values (%), Average, inhibition of IFNγ” value [5] was 46.8%, the “IC50 Values (pM), Geomean, inhibition of IFNγ” value [5] was 17.7 pM and the EC50 [6] was 2.4 nM. The “Emax Values (%), Average, inhibition of IL-17A” value [7] was 62.9%, the “IC50 Values (pM), Geomean, inhibition of IL-17A” value [7] was 32.5 pM and the “IC50 Values (pM), Geomean, inhibition of IL-21” value [8] was 6 pM.

B2: PD1AB-6-4P (antibody, V domains shown)
VH: EVQLVQSGAEVKKPGATVKISCKASGFNIKDTYMHWVQQAPGKGLEWMGRIDPANGDRKYDPKFQGRVTITADTSTDTAYMELSSLRSEDTAVYYCARSGPVYYYGSSYVMDYWGQGTTVTVSS
VL: DIVMTQSPDSLAVSLGERATINCKSGQSVLYSSNQKNFLAWYQQKPGQPPKLLIYWASTRESGVPDRFSGSGSGTDFTLTISSLQAEDVAVYYCHQYLYSWTFGQGTKLEIK
With B2 the Kd (cynomologous PD-1 [9]) was 25 nM, the “Emax Values (%), Average, inhibition of IFNγ” value [5] was 40.1% and the “IC50 Values (pM), Geomean, inhibition of IFNγ” value [5] was 31.5 pM. The “Emax Values (%), Average, inhibition of IL-17A” value [7] was 67.5%, the “IC50 Values (pM), Geomean, inhibition of IL-17A” value [7] was 176 pM and the “IC50 Values (pM), Geomean, inhibition of IL-21” value [8] was 50 pM.
